# Laboratory results reported in the nanobody polyreactivity screen of Harvey et al. (2022).
# Experiment: yeast display, Sf9 membrane polyspecificity reagent, FACS + sequencing; frameworks hold sequencing errors
# Method in brief: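 Galactose induction of a Saccharomyces cerevisiae BJ5465 synthetic nanobody display library ran 36–48 hours. The cells were then stained for 1 hour at 4 °C with 10% biotinylated, detergent-solubilized Sf9 membrane reagent, pulled down on streptavidin microbeads and FACS-sorted into low and high (top ~1%) gates on expression and reagent-binding fluorescence. Labels for polyreactivity follow the gate of origin.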
row,Sequence,polyreactivity (PSR sort gate)
1,QVQLVESGGGLVQAGGSLRLSCAASGSIFLEYTMGWYSQAPGKECVLVAAITSGGSTKYADSVKGRFTISRDTAKNTVYLQMNILKPEDTAVYYCNARHYSREFDYWGQGTQVTVSS,low polyreactivity
2,QVQLVESGGGLVQAGGSLRLSCAASGSIFLFNTMGWYRQAPGKERELVAVISRGGITYYADSVKGRFTISRDNAKNTVYLQMNSLKPEDTAVYYCAADGGYWSQYDYWGQGTQVTVSS,low polyreactivity
3,QVQLVESGGGLVQAGGSLRLSCAASGSIFLGYAMGWYRQAPGKERELVAAITSGGSTNYADSVKGRFTISRDNAKNTVYLQMNSLKPEDTAVYYCAAKGEWSLVYTDYDYWGQGTQVTVSS,low polyreactivity
4,QVQLVESGGGLVQAGGSLRLSCAASGSIFLGYTMGWYRQAPGKERELVAAINSSGGSTYYADSVKGRFTISRDNAKNTVYLQMNSLKAEDTAVYYCADANSILLFDSWGQGTQVTVSS,low polyreactivity
5,QVQLVESGGGLVQAGGSLRLSCAASGSIFLIYAMGWYRQAPGKERELVAAIDWGGGANTYYADSVKGRFTISRDNAKNTVYLQMNSLKPEDTAVYYCAVDSYTSGYEYWGQGTQVTVSS,low polyreactivity
6,QVQLVESGGGLVQAGGSLRLSCAASGSIFLIYAMGWYRQAPGKERELVAAISSGGSTYYADSVKGRFTISRDNAKNTVYLQMNSLKPEDTAVYYCAARYVERHTDYYYWGQGTQVTVSS,low polyreactivity
7,QVQLVESGGGLVQAGGSLRLSCAASGSIFLIYAMGWYRQAPGKERELVATINRGDNTYYADSVKGRFTISRDNAKNTVYLQMNSLKPEDTAVYYCAADVPWGWWDSDFSDNYYWGQGTQVTVSS,low polyreactivity
8,QVQLVESGGGLVQAGGSLRLSCAASGSIFLKYAMGWYRQAPGKERELVATISRGGSTNYADSVKGRFTISRDNAKNTVYLLMNSLKPEYTAVYYCAAKYGRPYGTYGYWGQGTQVTVSS,high polyreactivity
9,QVQLVESGGGLVQAGGSLRLSCAASGSIFLNNAMGWYRQAPGKERELVAAITRNVGSTYYADSVKGRFTISRDNAKNTVYLQMNSLKPEDSAVYYCAADRRRRYDYWGQGTQVTVSS,low polyreactivity
10,QVQLVESGGGLVQAGGSLRLSCAASGSIFLNYAMGWYRQAPGKERELVAGISNGGSTNYADSVKGRFTISRDNAKYTVYLQMNSLKPEDTAVFYCARPGYKSRGKRFDYWGQGTQVTVSS,low polyreactivity
11,QVQLVESGGGLVQAGGSLRLSCAASGSIFLPYAMGWYRQAPGKERELVAAITRRGTSTYYADSVKGRFTISRDNAKNTVYLQMNSLKPEDTAVYYCAAEIKYWYSAYAYGYWGQGTQVTVSS,high polyreactivity
12,QVQLVESGGGLVQAGGSLRLSCAASGSIFLPYAMVWSRQAPGTERELVAAITWGGDSTYADSVKGRFTISRDNAKNTVYLQMNSLKPEDTAVYYCAAGAGFESDYWGQGTQVTVSS,low polyreactivity
13,QVQLVESGGGLVQAGGSLRLSCAASGSIFLRNAMGWYRQAPGKERELVAAITKRGGSTYYADSVKGRFTISRDNAKNTVYLQMNSLKPEDTAVYYCNVDTYANTAFVRKPMYYWGQGTQVTVSS,low polyreactivity
14,QVQLVESGGGLVQAGGSLRLSCAASGSIFLSNAMGCYRQAPGKEREIVADIDWTGGDTYYADSVKGRFTISRDNAKNTVYLQMNSLKPEDTAVYYCAADYGYRNLLTEYSYWGQGTQVTVSS,low polyreactivity
15,QVQLVESGGGLVQAGGSLRLSCAASGSIFLSNMGWYREAPGKQRELVAAITIGGSTDYADSVKGRFTISRDNAKNTVFLQMNSLKPEDTAVYYCNADNPYSDGADSLGNYWGHGTQVTVSS,low polyreactivity
16,QVQLVESGGGLVQAGGSLRLSCAASGSIFLSYAMGWDRPAPGKVRELVADISRSGGSTYYADSVKGRFTISRDNAKNTVYLQMNSLKPEDTAVYYCAVYIAVYEGDYWGQGTQVTVSS,low polyreactivity
17,QVQLVESGGGLVQAGGSLRLSCAASGSIFLSYDMGWYRQAPGKERELVAAITQSGGSTYYADSVKGRFTISRDNAKNTVYLQMNSLKPEDTAVYYCAKEGDSGYWFDYWGQGTQVTVSS,low polyreactivity
18,QVQLVESGGGLVQAGGSLRLSCAASGSIFLTNAMGWYRQAPGKEREFVAAIDWGGTITYYADSVKGRFTISRDNAKNTVYLQMNSLKPEDTAVYYCAADPTYPYGYWGQGTQVTVSS,low polyreactivity
19,QVQLVESGGGLVQAGGSLRLSCAASGSIFLVNAMGWYRQAPGKERELVAAITWIGGSTYYADSVKGRFTISRDNAKNTVYLQMNSLKPEDTAVYYCAAYGKRLGGGGYYWGQGTQVTVSS,high polyreactivity
20,QVQLVESGGGLVQAGGSLRLSCAASGSIFLVNDKGWYRPAPGKERELVAAISSRGGSTYYADSVKGRFTISRDNAKNTVYLQMNSLKPEDTAVYYCAALQRPLEGLLYYYWGQGTPVTVSS,low polyreactivity
21,QVQLVESGGGLVQAGGSLRLSCAASGSIFLVYAMGWYRQAPGKERELVAAIDWSDTDTYYADSVKGRFTISRDNAKNTFYLQMNSLKPEDTAVYYCAADHVGVDFEYWGQGTQVTVSS,low polyreactivity
22,QVQLVESGGGLVQAGGSLRLSCAASGSIFLVYAMGWYRQAPGKERELVAAISRSGRTYADSVKGRFTISRDNAKNTVYLQMNSLKPEDTAVYYCNKLAVRPGYGSTYDYWGQGTQVTVSS,high polyreactivity

row,Sequence,polyreactivity (PSR sort gate)
1,QVQLVESGGGLVQAGGSLRLSCAASGSIFLVYAMGWYRQAPGKERELVAVIRWRDGSTYYADSVKGRFTISRDNAMNTVYLQMNSLKPEDTAVYYCAADGVIFEYDYWGQGTQVTVSS,low polyreactivity
2,QVQLVESGGGLVQAGGSLRLSCAASGSIFLVYSMGWYRQAPGKERELVAGITSDDSTNYADSVKGRFTISRDNAKNTVYLQMNSLKPEDTAVYYCAKDSLVWYIVDLGYWGQGTQVTVSS,low polyreactivity
3,QVQLVESGGGLVQAGGSLRLSCAASGSIFLWYTMGWYRQAPGKERELVAAISSSGGSTYYADSVKGRFTISRDNAKNTVYLQTNSLKPEDNAVYYCAAAKLFYYGRKYGKYDYWGQGTQVTVSS,high polyreactivity
4,QVQLVESGGGLVQAGGSLRLSCAASGSIFLYNAMGWYRPAPRKERELVAAISKSGGSTYYADSVKGRFTISRDNAKNTVYLQMNSLKPEDSAVYYCAAGYGRRIRYGSDYDYWGQGTQVTVSS,low polyreactivity
5,QVQLVESGGGLVQAGGSLRLSCAASGSIFLYNAMGWYRQAPGKERELVAAISASGGSTYYADSVKGRFTISRDNAKNTVYLQMNSLKPEDTAVYYWAAQYSDYDGFTWPLPPRYDYWGQGTQVTVSS,high polyreactivity
6,QVQLVESGGGLVQAGGSLRLSCAASGSIFLYNAMGWYRQAPGKERELVADITSAGRTYYADSVKGRFTISRDNAKNTVYLQMNSLKPEDTAVYYCNKDYHYHFSWYGYWGQGTQVTVSS,low polyreactivity
7,QVQLVESGGGLVQAGGSLRLSCAASGSIFLYYAMGWYRPAPGKDRELVAAIRRGGNTNYADSVKGRFTISRDNAKNTVYLQMNSLKPVDTAVYYCAAAQYSRYSRVPNYYAGTYYYWGQGTQVTVSS,low polyreactivity
8,QVQLVESGGGLVQAGGSLRLSCAASGSIFLYYAMGWYRQAPGKERELVAAITGGGGTNYADSVKGRFTISRDNAKNTVYLQMNSLKPEDTAVYYCAADTSGQFPYSYYNYDYDYWGQGTQVTVSS,low polyreactivity
9,QVQLVESGGGLVQAGGSLRLSCAASGSIFLYYAMGWYRQAPGKERELVASISSGGSTNYADSVKGRFTISRDNAKNTVYLQMNSLKPEDTAVYYCAARPYGGGRRSIYYYWGQGTQVTVSS,high polyreactivity
10,QVQLVESGGGLVQAGGSLRLSCAASGSIFLYYVMGWYRKAPGKERELVAAITWDGGSTYYADSVKGRFTISRDNAKNTVYLQMNSLKPEDTAVYYCNKGFKLWPRYGYDYWGQGTQVTVSS,low polyreactivity
11,QVQLVESGGGLVQAGGSLRLSCAASGSIFNAMGWYRQAPGKERELVAAITSGSSTYYADSVKGRFTISRDNAKNTVYLQMNSLKPEDTAVYYCAAGSQRRYYHTNWDSFNYWGQGTQVTVSS,low polyreactivity
12,QVQLVESGGGLVQAGGSLRLSCAASGSIFNAYAMGWYRQAPGKERELVAAISKRTSYADSVKGRFTISRDNAKNTVYLQMNSLKPEDTAVYYCAKEVDEPDGYEYDYWGQGTQVTVSS,low polyreactivity
13,QVQLVESGGGLVQAGGSLRLSCAASGSIFNEYAMGCYRQAPGKERELVAAISTSGDITYYADSVKGRFTISRDNAKNTVDLQMNSLKPEDTAVYYCAAKYSLLRQYNRLDSWGQGTQVTVSS,low polyreactivity
14,QVQLVESGGGLVQAGGSLRLSCAASGSIFNGYAMGWYRQAPGKERELVADIRSGGSTYYADSVKGRFTISRDNAKNTVYLQMNSLKPEDTAVYYCAADTITDGYDYWGQGTQVTVSS,low polyreactivity
15,QVQLVESGGGLVQAGGSLRLSCAASGSIFNKYAMGWYRQAPGKERELVATISFRGGSTYADSVKGRFTISRDNAKNTVYLQMNSLKPEDTAVYYCATKSGRNSPRMDYWGQGTQVTVSS,high polyreactivity
16,QVQLVESGGGLVQAGGSLRLSCAASGSIFNRNVMGWYRQAPGKERELVAAITWSGASTYYADSVKGRFTISRDNAKNTVYLQMNSLKPEDTAVYYCAATQYYRGYDYWGQGTQVTVSS,high polyreactivity
17,QVQLVESGGGLVQAGGSLRLSCAASGSIFNRYAMGWYRPAPGKERELVAAISRSGGRTYYADSVKGRFTISRDNAKNTVYLQMNSLKPEDTAVYYCAADKYYRQHEFDYWGQGTQVTVSS,high polyreactivity
18,QVQLVESGGGLVQAGGSLRLSCAASGSIFNRYAMGWYRQAPGKERELVAAISTHTGTTYYADSVKGRFTISRDNAKNTDYLQMNSLKPEDTAGYYCAKRSRYGYGKSYDYWGQGTQVTVSS,high polyreactivity
19,QVQLVESGGGLVQAGGSLRLSCAASGSIFNRYAMGWYRQAPGKERELVAAISTHTGTTYYADSVKGRFTISRDNAKNTVYLQMNSLKPEDTAVYYCAKRSRYGYGKSYDYWGQGTQVTVSS,high polyreactivity
20,QVQLVESGGGLVQAGGSLRLSCAASGSIFNSNAMGWYRQAPGKERELVAAITGSGGRTYYADSVKGRFTISRDNAKNTVYLQMNSLKPEDTAVYYCNAVTYSRRYAYYDWGQGTQVTVSS,high polyreactivity
21,QVQLVESGGGLVQAGGSLRLSCAASGSIFNVNTMGWYRQAPGKERELVAAISYSGGSTYYADSVKGRFTISRDTAKNTVYLQMNSLKPEDTAVYYCAAESYIEYYLKYDYWGQGTQVTVSS,low polyreactivity
